Assay [1] has as its target Aβ42 A21C/A30C (Aβ42-CC) monomers (UniProt P05067). Briefly: direct ELISA, Aβ42-CC monomers coated at pH 7.4. (In an ELISA, binding on a coated surface is turned into a signal by an enzyme label.)
The target is the same in assay [2]. Put plainly: direct ELISA, Aβ42-CC monomers coated at pH 10.4.
For assay [3] the target is unchanged. Briefly: direct ELISA, Aβ42-CC monomers coated at pH 10.4 with 10 mM TCEP (reduced form).

In the case of “monoclonal antibody 6E10 (Covance Research Products)”, the total Ig titer (log10) in assay [1] was determined as 2.1 log10 titer; in assay [2], 2 log10 titer; in assay [3], 2.1 log10 titer.

For the origin of these results see patent publication US20130344089A1.
